Test [1] concerns the target T1, TNFR2-His (Sino Biological, 10417-H08H, NP_001057.1 Met1-Asp257, with multi-histidine tag expressed on … (human, UniProt P20333 23-257)).
T1 construct: range 1-257; Bought protein; also called recombinant human TNFR2 protein; TNFR2-His antigen; not shown: C-terminal multi-histidine tag
T1 sequence (looked up): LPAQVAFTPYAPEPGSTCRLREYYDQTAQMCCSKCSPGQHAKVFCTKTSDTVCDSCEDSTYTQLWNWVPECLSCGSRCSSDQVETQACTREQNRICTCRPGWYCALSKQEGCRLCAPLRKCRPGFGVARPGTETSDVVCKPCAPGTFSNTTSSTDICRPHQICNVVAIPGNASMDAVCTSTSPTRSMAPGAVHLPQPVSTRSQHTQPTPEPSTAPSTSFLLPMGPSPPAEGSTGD
Briefly: ELISA, coated TNFR2-His. The method, boiled down:
(§1)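 EC50 values come from antibody dilution series tested by ELISA. Plates were coated with recombinant human TNFR2 bearing a C-terminal His tag and blocked before the serially diluted antibodies were added. Binding was detected with an enzyme-labelled anti-IgG secondary antibody, TMB development and a microplate reader.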
Background: ELISA stands for enzyme-linked immunosorbent assay.

For test [2], the target named is T2, human TNFR2 on the cell membrane (human, UniProt P20333 23-461).
T2 construct: whole, on cells; One molecule for all cell formats; also called TNFR2-CHO cells; CHO-TNFR2
T2 sequence (looked up): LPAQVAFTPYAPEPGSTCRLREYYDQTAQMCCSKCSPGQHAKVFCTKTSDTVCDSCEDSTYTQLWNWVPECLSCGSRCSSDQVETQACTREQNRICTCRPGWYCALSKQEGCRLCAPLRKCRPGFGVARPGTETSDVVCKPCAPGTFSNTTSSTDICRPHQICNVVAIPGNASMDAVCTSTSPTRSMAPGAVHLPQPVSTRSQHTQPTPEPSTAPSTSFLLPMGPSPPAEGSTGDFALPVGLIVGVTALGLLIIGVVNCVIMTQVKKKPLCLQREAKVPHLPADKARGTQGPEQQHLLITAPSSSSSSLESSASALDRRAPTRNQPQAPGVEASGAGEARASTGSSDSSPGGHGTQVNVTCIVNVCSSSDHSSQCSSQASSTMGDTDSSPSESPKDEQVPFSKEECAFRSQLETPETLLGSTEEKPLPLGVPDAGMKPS
Kind of test: competition flow cytometry, TNFR2 positive cells, TNFα fusion protein at fixed concentration. On the procedure:
Purified anti-human TNFR2 human-mouse monoclonal antibodies were co-cultured with TNFR2 positive cells and stained. The antibody binding intensity was analyzed by flow cytometry. The specific steps are as follows: cells were counted, centrifugated, resuspended, then added to a 96-deep well plate, and the supernatant was discarded. Gradient diluted anti-TNFR2 antibodies and TNFα fusion protein of fixed concentration were added. After incubation and wash, the secondary antibody PE-streptavidin (Biogen, 405203) was added for incubation, and the samples were detected using Beckman CytoFLEX.
For orientation: Flow cytometry measures light scatter and fluorescence of single cells or particles in a stream.

Test [3] concerns the target T1, TNFR2-His (Sino Biological, 10417-H08H, …). Briefly: competition ELISA, coated TNFR2-His, biotin-labeled TNFα fusion protein at fixed concentration. On the procedure:
(§2) The ELISA plate was coated with TNFR2-His antigen (Sino Biological, 10417-H08H, Assessment #NP_001057.1. Met1-Asp257, with multi-histidine tags expressed on C-terminus) and blocked, added with the gradient diluted TNFR2 monoclonal antibodies and biotin-labeled TNFα fusion protein of fixed concentration for incubation, then added with the secondary antibody Ap-Strepavidin (Herobio, 510401) for incubation. After development, the detection was performed using microplate reader.

A further test addresses T3, WT.
T3 construct: also called T cells of wild-type (WT) mice; mouse TNFR2 on the cell membrane
T3 chain: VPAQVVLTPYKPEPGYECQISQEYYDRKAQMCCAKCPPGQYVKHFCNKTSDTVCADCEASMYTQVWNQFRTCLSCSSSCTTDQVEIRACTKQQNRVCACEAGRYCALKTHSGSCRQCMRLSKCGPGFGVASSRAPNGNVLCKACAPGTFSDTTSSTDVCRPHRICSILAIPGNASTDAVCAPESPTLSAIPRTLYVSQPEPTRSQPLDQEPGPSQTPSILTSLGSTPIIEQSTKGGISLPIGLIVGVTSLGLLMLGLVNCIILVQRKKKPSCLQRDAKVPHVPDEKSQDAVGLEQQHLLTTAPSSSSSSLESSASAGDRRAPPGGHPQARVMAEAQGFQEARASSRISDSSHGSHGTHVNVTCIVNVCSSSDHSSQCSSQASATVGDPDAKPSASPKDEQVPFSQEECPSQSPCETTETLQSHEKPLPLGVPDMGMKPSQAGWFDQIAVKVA
Kind of test: flow cytometry on ConA-stimulated spleen cells of WT mice, mCD3+ T cells. On the procedure:
(§3) The cells were stained again with Cy-3 anti-human IgG and FITC anti-mCD3 (BD, 555274) after washing, under the same incubation conditions. After washing, the detection was performed.

Test [4] concerns the target T1, TNFR2-His (Sino Biological, 10417-H08H, …). Kind of test: BLI, antibody captured on AHC probe, TNFR2 in solution. On the procedure:
The GATOR (ProbeLife) detection instrument and AHC (Pall, 185064), Human antibody Capture probe were used to detect the dissociation constant (Kd) of human-mouse chimeric TNFR2 monoclonal antibody.
The human-mouse chimeric TNFR2 monoclonal antibodies were diluted to 50 nM in binding buffer (Q buffer [PBS (10 mM PH7.4)+0.02% Tween 20+0.2% BSA). The recombinant human TNFR2 protein was diluted in Q buffer with a 2-fold gradient starting from the highest concentration of 100 nM. The kinetic association assay was conducted by placing the antibody capture sensor in the continuously diluted antigen solutions mentioned above. The Octet Data Acquisition software was pened and the New Kinetics Experiment-Basic Kinetics mode was selected.
In general terms: In BLI a coated tip is dipped into the sample, and binding shifts an interference pattern.

Test [5] deals with T2, human TNFR2 on the cell membrane. Kind of test: flow cytometry on Jurkat-TNFR2 cells. On the procedure:
(§4) Purified human-mouse monoclonal antibodies against TNFR2 were co-cultured with TNFR2 positive Jurkat cells (Jurkat cells were transfected with pcDNA3.4-TNFR2 plasmid using conventional methods, and after screening, stable and highly expressed TNFR2 Jurkat cell lines were obtained) and stained. The antibody binding intensity was analyzed by flow cytometry. The specific steps are as follows: Jurkat-TNFR2 was counted, centrifuged, resuspended, then added to a 96-deep well plate, and the supernatant was discarded. The anti-TNFR2 antibody was gradient diluted, and added to the 96-deep well plate, After incubation and wash, the secondary antibody FITC-anti-human IgG (Abcam: 6854) was added, and the samples were detected using Beckman CytoFLEX.

Test [6] shares this target. Briefly: flow cytometry on ConA-stimulated spleen cells of hTNFR2-KI mice, mCD3+ T cells. On the procedure:
as §3

Test [7] has the same target. Briefly: flow cytometry, Jurkat-TNFR2 cells. On the procedure: as §4
In test [8] the target is T1, TNFR2-His (Sino Biological, 10417-H08H, …). Briefly: competition ELISA on coated TNFR2-His against biotin-labeled TNFα fusion protein at fixed concentration. On the procedure: as §2
Test [9] shares this target. Kind of test: ELISA, plate coated with TNFR2-His. On the procedure:
To determine whether the human-mouse chimeric TNFR2 monoclonal antibody of the present invention can bind to recombinant human TNFR2 protein, in vitro ELISA test was conducted. Similar to the method described above, The plate was coated with TNFR2-His (Sino Biological, 10417-H08H, Assessment #NP_001057.1.Met1-Asp257, with multi-histidine tag expressed on C-terminus) antigens, and blocked with BSA, then added with gradient diluted human-mouse chimeric TNFR2 monoclonal antibodies for incubation. Then, secondary antibody Ap-anit-human IgG Fc (JacksonImmuno Research, 109-055-098) was added for incubation After TMB development, ELISA reading was performed.

Test [10] addresses T2, human TNFR2 on the cell membrane. Kind of test: flow cytometry on human PBMC, CD3+ T cells. On the procedure: Purified anti-human TNFR2 human-mouse chimeric monoclonal antibodies were co-cultured with PBMC cells (Oricells) and stained. The binding of the antibody was analyzed by flow cytometry. The specific steps are as follows: PBMC cells (Oricells) were counted, centrifuged, resuspended, then added to a 96-deep well plate, and the supernatant was discarded. Diluted anti-TNFR2 monoclonal antibodies were added.

The target is the same in test [11]. Briefly: flow cytometry on CHO-TNFR2 cells. The method, boiled down: (§5)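 CHO cells were transfected with a pcDNA3.4 vector carrying human TNFR2, taken through drug selection and sorted as single clones to give a line that stably overexpresses the receptor. These cells were placed in 96-deep-well plates, incubated with serially diluted antibodies, washed and then stained with a fluorescent anti-IgG secondary antibody. Flow cytometry was run on a Beckman CytoFLEX, and EC50 values were derived from the dilution series.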

In test [12] the target is T1, TNFR2-His (Sino Biological, 10417-H08H, …). Briefly: ELISA, plate coated with TNFR2-His. The method, boiled down:
as §1
The source holds these as a separate data set.

The target is the same in test [13]. Kind of test: BLI, antibody captured on AHC probe, TNFR2-His in solution. In short, it runs like this:
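Bio-layer interferometry on an Octet in Basic Kinetics mode. Antibodies at 50 nM in Q buffer (10 mM PBS pH 7.4, 0.02% Tween 20, 0.2% BSA) were held on antibody-capture sensors. The sensors were then placed in recombinant human TNFR2 diluted 2-fold in Q buffer from a top concentration of 100 nM. Kon, koff and Kd come from these kinetic association measurements.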

Test [14] addresses T2, human TNFR2 on the cell membrane. Kind of test: flow cytometry, CHO-TNFR2 cells. In short, it runs like this:
as §5

Where “and” joins values, the source holds several entries; their conditions need not be identical. Equal values may be shown once.

B1: human-mouse chimeric TNFR2 monoclonal antibody 7F2-hFc (antibody, V domains shown)
VH: QVTLKESGPGILQPSQTLSLTCSFSGFSLNTFGLGVGWIRQPSGKGLEWLTHIWWNDDKYYNPALKSRLTISRDTSENLVFLKIANVDTADTATYYCARIEGLRRFDYWGQGTTLTVSS
VL: DIQMTQSPSSLSASLGGKVTITCKTSQDINKFIAWYQHKPGKGPRLLIHYTSTLQPGIPSRFSGSGSGRDYSFSISDLEPEDIATYYCLQYANLWAFGGGTKLEIK
notes: Mouse V regions of clone 7F2 with human constant regions
In the case of B1, the EC50 – broadly, the concentration at which the effect is half-maximal – in test [1] was 0.319 nM; in test [5], 0.0243 µg/mL; in test [7], 0.024 µg/mL; in test [9], 0.0476 µg/mL. Besides, the half-maximal inhibitory concentration (IC50) (commonly the midpoint of a concentration-inhibition curve) in test [2] was 0.417 µg/mL; in test [3] it was 0.225 µg/mL; in test [8] it was 0.229 µg/mL and 1.53 nM. In the test with WT, the binding result is on record as “no binding”. The figures for the “percent of cells in the upper right quadrant (Q2-UR, mCD3+ and anti-hIgG+)” value (with WT; in [6]) were 0.9% and 45%, respectively. Further, the affinity in test [4], expressed as Kd, was 25.3 nM. Also, the off-rate constant (koff) (in general, a measure of how fast the partners let go of each other) in test [4] was 0.00639 s⁻¹. Besides, the association rate constant (kon) (in general, the rate constant with which the complex forms) in [4] turned out to be 253000 M⁻¹ s⁻¹.

B2: human-mouse chimeric TNFR2 monoclonal antibody 29A1-hFc (antibody, V domains shown)
VH: QVQLQQSGAEVVRPGASVTLSCKASGYTFSDYEMHWVKQTPVHGLEWIGAIDPETGDTAYNQKFKDKARVTADKSSSTAYMELRSLTSEDSAVYYCTRDIHYYGSSLSYFDYWGQGTTLTVSS
VL: DIVMTQSQKFMSTSVGDRVSVTCKASQNVGTNVAWYQQKPGQSPKVMIYSASYRYSGAPDRFTGSGSGTDFTLTVNNVQSEDLAEYFCQQYKTYPYTFGGGTKLEIE
notes: Mouse V regions of clone 29A1 with human constant regions
B2: the concentration giving a half-maximal response (EC50) in [1] is 0.248 nM; in test [5], 14.2 µg/mL; in test [9], 0.037 µg/mL. For the same molecule, the “percent of cells in the upper right quadrant (Q1-UR, CD3+ and anti-human IgG Fc+)” value in test [10] stood at 13.6%. In addition, the IC50 was 0.642 µg/mL in [3]; 0.648 µg/mL and 4.34 nM in [8]. The Kd (in general, the equilibrium constant for the complex coming apart) in [4] amounted to 16.3 nM. For the same molecule, in test [4], the off-rate constant (koff) stood at 0.00469 s⁻¹. Further, the kon in test [4] amounted to 289000 M⁻¹ s⁻¹.

B3: human-mouse chimeric TNFR2 monoclonal antibody 33C12-hFc (antibody, V domains shown)
VH: DVKLVESGGGLVKPGGSLKLSCAASGFTFSDYTMSWVRQTPEKRLEWVATISTGGSYTYYPDSVKGRFTISRDNAKNTLYLQMSSLKSEDTAMYYCTRDGGYDGDYFDYWGQGTTLTVSS
VL: ENVLTQSPAIMSASPGEKVTMTCRASSSVSSSYLHWYQQKSGASPKLWIYRTSNLASGVPARFSGSGSGTSYSLTISSVEAEDAATYYCQQYSGYPLTFGAGTRLELK
notes: Mouse V regions of clone 33C12 with human constant regions; also called human-mouse chimeric 33C12 antibody
As to B3, the EC50 is 0.318 nM in test [1]; 0.142 µg/mL in test [11]; 0.0782 µg/mL and 0.524 nM in test [12]; 0.951 nM in test [14]; 0.658 µg/mL in test [5]; 0.66 µg/mL in test [7]. In addition, in test [9], a half-maximal effect (EC50) was put at 0.0475 µg/mL. In addition, the binding result in the test with WT is “no binding”. For the same molecule, the “percent of cells in the upper right quadrant (Q2-UR, mCD3+ and anti-hIgG+)” value in the test with WT was determined as 1.02%; in test [6], 43.6%. Further, the dissociation constant Kd in test [4] was 21.9 nM; in test [13], 17.3 nM. Further, the off-rate constant (koff) in [4] stood at 0.00286 s⁻¹; in [13], 0.00156 s⁻¹. In addition, the kon in [4] was found to be 131000 M⁻¹ s⁻¹; in test [13], 90500 M⁻¹ s⁻¹.

Values taken from patent US20240392024A1 (SHANGHAI CELGEN BIO PHARMACEUTICAL, published 2024).
